These results are taken from the supplement of paper PMC11246515.

± gives the standard deviation of the averaged measurements.

The nature of the data set: total protein half-life in vivo (active degradation + dilution); higher = more stable protein.
Setting [1] is: E. coli NCM3722 delta-clpP delta-lon delta-hslV, growth: N-lim chemostat, doubling time 6 h.
Setting [2] is: E. coli NCM3722 delta-clpP, growth: N-lim chemostat, doubling time 6 h.
[3] abbreviates: E. coli NCM3722 delta-hslV, growth: N-lim chemostat, doubling time 6 h.
Where [4] appears, read: E. coli NCM3722 delta-lon, growth: N-lim chemostat, doubling time 6 h.
The mark [5] stands for this setting: E. coli NCM3722 delta-smpB, growth: N-lim chemostat, doubling time 6 h.
Setting [6] is: wild type E. coli NCM3722, growth: C-lim chemostat, doubling time 3 h.
The mark [7] stands for this setting: wild type E. coli NCM3722, growth: C-lim chemostat, doubling time 6 h.
[8] abbreviates: wild type E. coli NCM3722, growth: C-lim chemostat, doubling time 12 h.
Setting [9] is: wild type E. coli NCM3722, growth: N-lim chemostat, doubling time 12 h.
The mark [10] stands for this setting: wild type E. coli NCM3722, growth: P-lim chemostat, doubling time 12 h.
Where [11] appears, read: wild type E. coli NCM3722, growth: N-lim chemostat, doubling time 6 h.
The mark [12] stands for this setting: wild type E. coli NCM3722, growth: P-lim chemostat, doubling time 6 h.

On to “MSKQLTAQAPVDPIVLGKMGSSYGIRGWLRVFSSTEDAESIFDYQPWFIQKAGQWQQVQLESWKHHNQDMIIKLKGVDDRDAANLLTNCEIVVDSSQLPQLEEGDYYWKDLMGCQVVTTEGYDLGKVVDMMETGSNDVLVIKANLKDAFGIKERLVPFLDGQVIKKVDLTTRSIEVDWDPGF [P0A7X6]”, for which the “total protein half-life in vivo” value reads like this: under setting [1], 5.56 ± 0.28 h; under setting [2], 3.21 h; under setting [3], 3.38 h; under setting [4], 4.04 ± 1.9 h; under setting [5], 3.79 h; under setting [6], 2.65 ± 0.43 h. Moreover, the “total protein half-life in vivo” value is, setting by setting: under setting [7], 4.72 ± 0.19 h; under setting [8], 7.94 ± 0.8 h; under setting [9], 5.22 h; under setting [10], 3.98 ± 0.42 h.

As to “MKKLKLHGFNNLTKSLSFCIYDICYAKTAEERDGYIAYIDELYNANRLTEILSETCSIIGANILNIARQDYEPQGASVTILVSEEPVDPKLIDKTEHPGPLPETVVAHLDKSHICVHTYPESHPEGGLCTFRADIEVSTCGVISPLKALNYLIHQLESDIVTIDYRVRGFTRDINGMKHFIDHEINSIQNFMSDDMKALYDMVDVNVYQENIFHTKMLLKEFDLKHYMFHTKPEDLTDSERQEITAALWKEMREIYYGRNMPAV [P0A7F6]”, the “total protein half-life in vivo” value by setting is: under setting [2], 4.12 ± 0.42 h; under setting [3], 3.29 ± 0.22 h; under setting [4], 3.67 ± 0.29 h; under setting [5], 3.3 ± 0.2 h; under setting [6], 2.8 ± 0.15 h; under setting [7], 4.99 h. Further, the “total protein half-life in vivo” value under setting [8] is 9.17 ± 0.37 h; the “total protein half-life in vivo” value under setting [11] turned out to be 2.928 ± 0.015 h; the “total protein half-life in vivo” value under setting [9] is 4.17 ± 0.036 h; the “total protein half-life in vivo” value under setting [12] is 4.78 ± 0.48 h; the “total protein half-life in vivo” value under setting [10] was found to be 7.61 ± 1.4 h.

With “MLKRVFLSLLVLIGLLLLTVLGLDRWMSWKTAPYIYDELQDLPYRQVGVVLGTAKYYRTGVINQYYRYRIQGAINAYNSGKVNYLLLSGDNALQSYNEPMTMRKDLIAAGVDPSDIVLDYAGFRTLDSIVRTRKVFDTNDFIIITQRFHCERALFIALHMGIQAQCYAVPSPKDMLSVRIREFAARFGALADLYIFKREPRFLGPLVPIPAMHQVPEDAQGYPAVTPEQLLELQKKQGK [P0AFY2]”, the “total protein half-life in vivo” value reads like this: under setting [1], 5.75 ± 0.44 h; under setting [3], 6.88 ± 0.82 h; under setting [4], 5.72 ± 0.66 h; under setting [5], 6.021 ± 0.027 h; under setting [6], 3.1 ± 0.074 h; under setting [7], 5.81 ± 0.24 h. The “total protein half-life in vivo” value by setting is: under setting [8], 10.9 ± 0.74 h; under setting [11], 5.85 ± 0.23 h; under setting [9], 11.6 ± 1.1 h; under setting [12], 5.92 ± 0.26 h; under setting [10], 12.3 ± 0.33 h.

Regarding “MTNTWNRLALLIFAVLSLLVAGELQAGVVVGGTRFIFPADRESISILLTNTSQESWLINSKINRPTRWAGGEASTVPAPLLAAPPLILLKPGTTGTLRLLRTESDILPVDRETLFELSIASVPSGKVENQSVKVAMRSVFKLFWRPEGLPGDPLEAYQQLRWTRNSQGVQLTNPTPYYINLIQVSVNGKALSNVGVVPPKSQRQTSWCQAIAPCHVAWRAINDYGGLSAKKEQNLP”, the “total protein half-life in vivo” value stood at 2.87 h under setting [6] and 3.48 h under setting [9].

With “MSVTIQGNTSTVISNNSAPEGTSEIAKITRQIQVLTEKLGKISSEEGMTTQQKKEMAALVQKQIESLWAQLEQLLRQQAEKKNEDATVQPDKKEEKKDDTNTAGTIDIYV”, under setting [6], the “total protein half-life in vivo” value came out at 0.426 h.

Turning to “MKTRTQQIEELQKEWTQPRWEGITRPYSAEDVVKLRGSVNPECTLAQLGAAKMWRLLHGESKKGYINSLGALTGGQALQQAKAGIEAVYLSGWQVAADANLAASMYPDQSLYPANSVPAVVERINNTFRRADQIQWSAGIEPGDPRYVDYFLPIVADAEAGFGGVLNAFELMKAMIEAGAAAVHFEDQLASVKKCGHMGGKVLVPTQEAIQKLVAARLAADVTGVPTLLVARTDADAADLITSDCDPYDSEFITGERTSEGFFRTHAGIEQAISRGLAYAPYADLVWCETSTPDLELARRFAQAIHAKYPGKLLAYNCSPSFNWQKNLDDKTIASFQQQLSDMGYKFQFITLAGIHSMWFNMFDLANAYAQGEGMKHYVEKVQQPEFAAAKDGYTFVSHQQEVGTGYFDKVTTIIQGGTSSVTALTGSTEESQF [P0A9G6]”, the “total protein half-life in vivo” value under setting [1] was found to be 3.78 ± 0.38 h; the “total protein half-life in vivo” value under setting [2] was 3.26 ± 0.34 h; the “total protein half-life in vivo” value under setting [3] turned out to be 2.33 ± 0.14 h; the “total protein half-life in vivo” value under setting [4] came to 2.71 ± 0.22 h; the “total protein half-life in vivo” value under setting [5] stood at 2.51 ± 0.07 h; the “total protein half-life in vivo” value under setting [6] was 3.19 ± 0.085 h. The “total protein half-life in vivo” value is, setting by setting: under setting [7], 4.78 ± 0.25 h; under setting [8], 7.76 ± 0.96 h; under setting [11], 3.01 ± 0.6 h; under setting [9], 3.15 ± 0.29 h; under setting [12], 5.05 ± 0.28 h; under setting [10], 11.2 ± 3.2 h.

As to “MKTYQGTHGVHILEYQSKINKLLCYLTNRYPRLIAVRVDLHYPKIVDNGDNICCFPNLEPGVISRMRESLRAKLEADRTRKVREDKRIYRCPLFIIWAKEYSESGKCHYHICLLFNKDAYYHLGDYDQDDNLRGMITGAWYSALRLERDDHPGLVHFPENCKYVLDTNSTDFQQNYQALLTRLDYLTKVESKVFGEGDRNFGCSQIEL”, the “total protein half-life in vivo” value under setting [8] was above 16 h.

Take “MKNSKAILQVPGTMKIISAEIPVPKEDEVLIKVEYVGICGSDVHGFESGPFIPPKDPNQEIGLGHECAGTVVAVGSRVRKFKPGDRVNIEPGVPCGHCRYCLEGKYNICPDVDFMATQPNYRGALTHYLCHPESFTYKLPDNMDTMEGALVEPAAVGMHAAMLADVKPGKKIIILGAGCIGLMTLQACKCLGATEIAVVDVLEKRLAMAEQLGATVVINGAKEDTIARCQQFTEDMGADIVFETAGSAVTVKQAPYLVMRGGKIMIVGTVPGDSAINFLKINREVTIQTVFRYANRYPVTIEAISSGRFDVKSMVTHIYDYRDVQQAFEESVNNKRDIIKGVIKISD”: the “total protein half-life in vivo” value was 4.54 h under setting [1]; 4.02 h under setting [2]; 2.93 h under setting [3]; 3.28 h under setting [4]; 3.59 ± 0.58 h under setting [5]; 2.63 ± 0.11 h under setting [6]. Besides, the “total protein half-life in vivo” value reads like this: under setting [7], 4.65 ± 0.57 h; under setting [8], 8.14 ± 1.7 h; under setting [11], 3.39 ± 0.43 h; under setting [9], 5.18 ± 0.57 h; under setting [12], 4.95 ± 0.44 h; under setting [10], 9.79 ± 0.17 h.

Turning to “MISANRPIINLDLDLLRTFVAVADLNTFAAAAAAVCRTQSAVSQQMQRLEQLVGKELFARHGRNKLLTEHGIQLLGYARKILRFNDEACSSLMFSNLQGVLTIGASDESADTILPFLLNRVSSVYPKLALDVRVKRNAYMAEMLESQEVDLMVTTHRPSAFKALNLRTSPTHWYCAAEYILQKGEPIPLVLLDDPSPFRDMVLATLNKADIPWRLAYVASTLPAVRAAVKAGLGVTARPVEMMSPDLRVLSGVDGLPPLPDTEYLLCYDPSSNNELAQVIYQAMESYHNPWQYSPMSAPEGDDSLLIERDIE”, the “total protein half-life in vivo” value is 5.56 ± 0.33 h under setting [2]; 2.546 ± 0.023 h under setting [3]; 3.25 h under setting [4]; 2.713 ± 0.022 h under setting [5]; 2.45 ± 0.064 h under setting [6]; 4.7 ± 0.26 h under setting [7]. Further, the “total protein half-life in vivo” value by setting is: under setting [8], 7.62 ± 0.41 h; under setting [11], 3.28 ± 1.1 h; under setting [9], 3.66 ± 0.051 h; under setting [12], 3.43 ± 0.079 h; under setting [10], 6.34 ± 0.77 h.

For the sequence “MQVFIMRHGDAALDAASDSVRPLTTNGCDESRLMANWLKGQKVEIERVLVSPFLRAEQTLEEVGDCLNLPSSAEVLPELTPCGDVGLVSAYLQALTNEGVASVLVISHLPLVGYLVAELCPGETPPMFTTSAIASVTLDESGNGTFNWQMSPCNLKMAKAI”, the “total protein half-life in vivo” value is, setting by setting: under setting [1], 4.59 ± 0.56 h; under setting [2], 4.209 ± 0.026 h; under setting [3], 0.943 ± 0.06 h; under setting [4], 0.853 ± 0.11 h; under setting [5], 1.03 ± 0.01 h; under setting [6], 1.06 ± 0.013 h. Moreover, the “total protein half-life in vivo” value under setting [7] is 1.35 ± 0.12 h; the “total protein half-life in vivo” value under setting [8] came to 1.57 ± 0.41 h; the “total protein half-life in vivo” value under setting [11] was determined as 1.13 ± 0.12 h; the “total protein half-life in vivo” value under setting [9] amounted to 1.5 ± 0.33 h; the “total protein half-life in vivo” value under setting [12] amounted to 1.25 ± 0.38 h; the “total protein half-life in vivo” value under setting [10] was determined as 2.5 ± 0.88 h.
